{"source": "patent US20220088115A1", "about": "“PHARMACEUTICAL COMPOSITION, COMPRISING INHIBITORY PEPTIDE AGAINST FAS SIGNALING, FOR PREVENTION OR TREATMENT OF OBESITY, FATTY LIVER, OR STEATOHEPATITIS” (SIGNET BIOTECH INC., priority 2018, published 2022)", "molecules": {"B1": {"name": "Control Peptide (CTRP) (peptide)", "peptide": "YCNSTVCY", "modifications": "cysteine pairing not given here; also: Alexa647 label, attachment site not given here"}, "B2": {"name": "Fas Blocking Peptide (FBP or FBP-8) (peptide)", "peptide": "YCDEHFCY", "modifications": "cysteine pairing not given here; also: Alexa647 or Alexa 488 label, attachment site not given here"}}, "key": {"[1]": {"test": "Stability of peptides in sera", "assay_type": "in vitro ADME", "settings": "compared among cyclic FBP-8, linear FBP-8 and FBP-7"}, "[2]": {"system": "obese person", "settings": "in vivo; cited from earlier work"}, "[3]": {"target": "T1, Fas (Homo sapiens, UniProt P25445)", "T1 construct": "A Jurkat cell line, in which Fas is always expressed; host or cells: Jurkat", "T1 sequence (P25445 26-335)": "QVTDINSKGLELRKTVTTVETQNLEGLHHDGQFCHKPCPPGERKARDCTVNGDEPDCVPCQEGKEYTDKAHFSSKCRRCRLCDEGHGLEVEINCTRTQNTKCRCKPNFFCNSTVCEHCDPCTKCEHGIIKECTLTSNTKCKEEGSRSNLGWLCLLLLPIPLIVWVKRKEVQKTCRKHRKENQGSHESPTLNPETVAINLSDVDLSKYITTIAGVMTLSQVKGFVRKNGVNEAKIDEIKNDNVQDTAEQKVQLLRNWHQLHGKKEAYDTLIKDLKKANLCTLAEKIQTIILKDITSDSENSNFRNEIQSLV", "test": "Binding of Alexa647-labeled peptides to Fas-expressing Jurkat cell line", "settings": "Jurkat cell line always expressing Fas; Alexa647-labeled peptide", "procedure": "A Jurkat cell line which is a human blood cancer cell line and a 3T3L1 cell line which is a murine adipocyte were purchased from ATCC (USA), and the Jurkat cell line was cultured in an RPMI culture medium containing 10% fetal bovine serum (FBS), 1% penicillin, 1% streptomycin, and 25 mM glucose.\nA Jurkat cell line, in which Fas is always expressed, was treated with an FITC-labeled Fas antibody and treated with Alexa647-labeled FBP-8, FBP-A, FBP-7 or control peptide (YCNSTVCY; CtrFBP)."}, "[4]": {"system": "3T3L1 cell line", "test": "Apoptosis level in 3T3L1 cell line treated with FasL and peptide (annexin V flow cytometry)", "assay_type": "cell-based, murine", "settings": "differentiated 3T3L1 treated with Fas ligand and peptide", "procedure": "The 3T3L1 cell line was cultured in a DMEM culture medium containing 10% FBS, 1% penicillin, 1% streptomycin, and 25 mM glucose. The 3T3L1 cell line was aliquoted into the above DMEM culture solution at a concentration of 2×10^5 cells/ml to induce adipocyte maturation for 3 days, and then replaced with a culture solution containing insulin to induce adipocyte maturation again for 3 days. Thereafter, the 3T3L1 cell line was further cultured in the above DMEM culture solution for 2 days to achieve complete maturation of adipocytes.\nThe 3T3L1 cell line was treated with a Fas ligand (FasL) at a concentration of 500 ng/ml to induce apoptosis, and FBP signal blocking peptides (FBP-8. FBP-A and FBP-7) and CtrFBP bound to Alexa647 were treated, respectively. After 4 hours of peptide treatment, cells were washed with DPBS and treated with FITC-bound annexin V (BD Pharmingen) to analyze the apoptosis inhibitory effect by a flow cytometer."}, "[5]": {"system": "obesity model mice", "test": "TUNEL staining of dead cells, obesity model mice, intravenous FBP-8", "assay_type": "in vivo, C57BL/6 mice", "settings": "intravenous twice a week for 5 weeks", "procedure": "All animal experiments performed for the present invention were approved by the Institutional Animal Care and Use Committee of Hanyang University. […] Thereafter, depending on the experimental group, 60 μg/one time of FBP8 were administered by intravenous injection twice a week for a total of 5 weeks (FIG. 13), or FBP7 was administered by subcutaneous injection twice a day.\nFurthermore, a terminal deoxynucleotidyl transferase dUTP nick end labeling (TUNEL) analysis for each tissue was performed with an in situ cell death detection kit (Millipore, USA). Thereafter, the fluorescence signals were analyzed under a TCS-SP5 confocal microscope by staining the nuclei with Hoechst 33342, and the fluorescence signals of each cell were analyzed with the Image J program.\nObesity model mice were produced by feeding normal mice a high fat diet for 8 weeks, and FBP-8 was administered by intravenous injection twice a week for a total of 5 weeks (FIG. 13). After five weeks, the obesity model mice were sacrificed to isolate white adipose tissues and liver tissues and analyze the proportion of dead cells by TUNEL staining."}, "[6]": {"target": "T2, Fas on Jurkat cell line (human blood cancer cell line in which Fas is always expressed) (human, UniProt P25445 26-335)", "T2 sequence (looked up)": "T1 sequence (P25445 26-335)", "test": "cell-based or functional assay"}}, "note": "Where a SMILES comes first, the peptide text is derived from it. Where no end group is shown, it is not given here.", "data": [{"molecule": "N[C@@H](Cc1ccc(O)cc1)C(=O)N[C@@H](CS)C(=O)N[C@@H](CC(=O)O)C(=O)N[C@@H](CCC(=O)O)C(=O)N[C@@H](Cc1c[nH]cn1)C(=O)N[C@@H](Cc1ccccc1)C(=O)N[C@@H](Cc1ccc(O)cc1)C(=O)O", "note": "[FBP-7, YCDEHFY] (H-YCDEHFY-OH; N-terminus and C-terminus assumed)", "values": [{"measurement": "serum stability", "setting": "[1]", "value": "the best"}]}, {"molecule": "CCCCCCCCCCCCCCCC(=O)N[C@@H](CCC(=O)NCCCC[C@H](NC(=O)[C@H](C)NC(=O)[C@H](C)NC(=O)[C@H](CCC(N)=O)NC(=O)CNC(=O)[C@H](CCC(=O)O)NC(=O)[C@H](CC(C)C)NC(=O)[C@H](Cc1ccc(O)cc1)NC(=O)[C@H](CO)NC(=O)[C@H](CO)NC(=O)[C@@H](NC(=O)[C@H](CC(=O)O)NC(=O)[C@H](CO)NC(=O)[C@@H](NC(=O)[C@H](Cc1ccccc1)NC(=O)[C@@H](NC(=O)CNC(=O)[C@H](CCC(=O)O)NC(=O)[C@H](C)NC(=O)[C@@H](N)Cc1cnc[nH]1)[C@@H](C)O)[C@@H](C)O)C(C)C)C(=O)N[C@@H](CCC(=O)O)C(=O)N[C@@H](Cc1ccccc1)C(=O)N[C@H](C(=O)N[C@@H](C)C(=O)N[C@@H](Cc1c[nH]c2ccccc12)C(=O)N[C@@H](CC(C)C)C(=O)N[C@H](C(=O)N[C@@H](CCCNC(=N)N)C(=O)NCC(=O)N[C@@H](CCCNC(=N)N)C(=O)NCC(=O)O)C(C)C)[C@@H](C)CC)C(=O)O", "note": "[liraglutide]", "values": [{"measurement": "side effects", "setting": "[2]", "value": "nausea, vomiting, diarrhea, and constipation"}]}, {"molecule": "YCDEHFAY (Fas binding peptide-A (FBP-A))", "values": [{"measurement": "binding to Jurkat cells (Alexa647 signal)", "setting": "[3]", "value": "bound to Jurkat cells at similar levels"}]}, {"molecule": "YCNSTVCY (control peptide) [CtrFBP, control peptide used as negative control, reference compound]", "values": [{"measurement": "binding to Jurkat cells (Alexa647 signal)", "setting": "[3]", "value": "hardly bound to Jurkat cells"}, {"measurement": "apoptosis level", "setting": "[4]", "value": "23±5.12", "unit": "%"}, {"measurement": "proportion of dead cells in liver tissue (TUNEL)", "setting": "[5]", "value": "17+7.98%"}, {"measurement": "proportion of dead cells in white adipose tissue (TUNEL)", "setting": "[5]", "value": "51±2.98", "unit": "%"}]}, {"molecule": "YCDEHFY (also: Alexa647 label, attachment site not given here)", "note": "[Fas Blocking Peptide 7 (FBP7)]", "values": [{"measurement": "apoptosis level of Jurkat cells treated with Fas ligand (FasL) and peptide", "setting": "[6]", "value": 14, "unit": "%"}]}, {"molecule": "B1", "values": [{"measurement": "apoptosis level of Jurkat cells treated with Fas ligand (FasL) and peptide", "setting": "[6]", "value": 31, "unit": "%"}]}, {"molecule": "B2", "values": [{"measurement": "apoptosis level of Jurkat cells treated with Fas ligand (FasL) and peptide", "setting": "[6]", "value": 17, "unit": "%"}]}, {"molecule": "YCDEHFAY (also: Alexa647 label, attachment site not given here)", "note": "[Fas Blocking Peptide A (FBPA)]", "values": [{"measurement": "apoptosis level of Jurkat cells treated with Fas ligand (FasL) and peptide", "setting": "[6]", "value": 15, "unit": "%"}]}]}
